Molecular target: purified complex of human cardiac RLC, human ventricular ELC and the β-myosin heavy chain light chain binding fragment (aa778-840), P10916
Sequence (P10916 2-166, chain 1 of 3): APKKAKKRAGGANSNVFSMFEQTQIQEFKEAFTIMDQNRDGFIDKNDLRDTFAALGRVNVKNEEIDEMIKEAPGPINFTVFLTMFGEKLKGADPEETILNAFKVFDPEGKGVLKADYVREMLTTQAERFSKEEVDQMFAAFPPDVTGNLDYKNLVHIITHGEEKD
Sequence (chain, as listed by the source, chain 2 of 3): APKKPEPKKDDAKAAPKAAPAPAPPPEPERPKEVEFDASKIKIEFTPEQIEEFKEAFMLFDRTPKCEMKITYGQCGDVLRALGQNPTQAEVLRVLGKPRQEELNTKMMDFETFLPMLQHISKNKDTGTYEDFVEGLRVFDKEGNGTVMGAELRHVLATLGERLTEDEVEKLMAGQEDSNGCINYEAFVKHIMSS
Sequence (chain, as listed by the source, chain 3 of 3): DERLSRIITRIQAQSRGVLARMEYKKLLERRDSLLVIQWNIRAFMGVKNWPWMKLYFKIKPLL

| Protein | K, (printed so; presumably Km) | Vmax (pmoles min^-1 ng^-1) |
| --- | --- | --- |
| mutant human cMLCK (ala 87 val, ala 95 glu), full length, with amino-terminal FLAG tag (protein) MATENGAVELGIQNPSTDKAPKGPTGERPLAAGKDPGPPDPKKAPDPPTLKKDAKAPASEKGDGTLAQPSTSSQGPKGEGDRGGGPVEGSAGPPEALPQQTATPETSVKKPKAEQGASGSQDPGKPRVGKKAAEGQAAARRGSPAFLHSPSCPAIISSSEKLLAKKPPSEASELTFEGVPMTHSPTDPRPAKAEEGKNILAESQKEVGEKTPGQAGQAKMQGDTSRGIEFQAVPSEKSEVGQALCLTAREEDCFQILDDCPPPPAPFPHRMVELRTGNVSSEFSMNSKEALGGGKFGAVCTCMEKATGLKLAAKVIKKQTPKDKEMVLLEIEVMNQLNHRNLIQLYAAIETPHEIVLFMEYIEGGELFERIVDEDYHLTEVDTMVFVRQICDGILFMHKMRVLHLDLKPENILCVNTTGHLVKIIDFGLARRYNPNEKLKVNFGTPEFLSPEVVNYDQISDKTDMWSMGVITYMLLSGLSPFLGDDDTETLNNVLSGNWYFDEETFEAVSDEAKDFVSNLIVKDQRARMNAAQCLAHPWLNNLAEKAKRCNRRLKSQILLKKYLMKRRWKKNFIAVSAANRFKKISSSGALMALGV | 17 µM | 216 |
| human cardiac myosin light chain kinase (cMLCK), full length, wild type, with amino-terminal FLAG tag (protein) MATENGAVELGIQNPSTDKAPKGPTGERPLAAGKDPGPPDPKKAPDPPTLKKDAKAPASEKGDGTLAQPSTSSQGPKGEGDRGGGPAEGSAGPPAALPQQTATPETSVKKPKAEQGASGSQDPGKPRVGKKAAEGQAAARRGSPAFLHSPSCPAIISSSEKLLAKKPPSEASELTFEGVPMTHSPTDPRPAKAEEGKNILAESQKEVGEKTPGQAGQAKMQGDTSRGIEFQAVPSEKSEVGQALCLTAREEDCFQILDDCPPPPAPFPHRMVELRTGNVSSEFSMNSKEALGGGKFGAVCTCMEKATGLKLAAKVIKKQTPKDKEMVLLEIEVMNQLNHRNLIQLYAAIETPHEIVLFMEYIEGGELFERIVDEDYHLTEVDTMVFVRQICDGILFMHKMRVLHLDLKPENILCVNTTGHLVKIIDFGLARRYNPNEKLKVNFGTPEFLSPEVVNYDQISDKTDMWSMGVITYMLLSGLSPFLGDDDTETLNNVLSGNWYFDEETFEAVSDEAKDFVSNLIVKDQRARMNAAQCLAHPWLNNLAEKAKRCNRRLKSQILLKKYLMKRRWKKNFIAVSAANRFKKISSSGALMALGV | 6 µM | 115 |
